Numbered stars: 1 amine (or outer) side, 2 acyl side, 3 side chain; on linkers, the order of the positions; unused ones are H or OH. Square brackets hold non-standard residues; d marks the D form. Side chains are listed from the residue outwards. Ends that are not written are not given here. * marks the point of attachment. C18 diacid = O=C(O)CCCCCCCCCCCCCCCCC(=O)*; γGlu = O=C(O)[C@H](CCC(=O)[*:2])N[*:1]; Iva = CC[C@](C)(N)C(=O)O; AEEA = NCCOCCOCC(=O)O; Aib = CC(C)(N)C(=O)O
Columns and labels:
human GLP-1 receptor [1] = target: T1, human GLP-1 receptor (human, UniProt P43220 24-463); assay: displacement of [125I]GLP-1 from HEK-293 membranes expressing hGLP-1R (SPA beads)
T1 construct: whole, on cells; also called hGLP-1R; hGLP-1 R

human GIP receptor [2] = target: T2, human GIP receptor (human, UniProt P48546 22-466); assay: cell-based or functional assay
T2 sequence (looked up): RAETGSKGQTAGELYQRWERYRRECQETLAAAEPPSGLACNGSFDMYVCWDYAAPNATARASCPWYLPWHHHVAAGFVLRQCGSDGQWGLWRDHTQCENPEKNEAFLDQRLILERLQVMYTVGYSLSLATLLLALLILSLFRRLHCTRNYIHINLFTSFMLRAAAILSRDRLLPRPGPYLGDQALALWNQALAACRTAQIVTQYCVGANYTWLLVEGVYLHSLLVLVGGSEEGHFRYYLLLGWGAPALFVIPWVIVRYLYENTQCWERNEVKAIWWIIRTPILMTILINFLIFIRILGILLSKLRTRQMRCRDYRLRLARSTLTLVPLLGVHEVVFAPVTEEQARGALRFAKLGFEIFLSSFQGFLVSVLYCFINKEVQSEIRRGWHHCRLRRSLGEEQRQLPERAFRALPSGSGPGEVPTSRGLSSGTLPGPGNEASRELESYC

human GIP receptor [3] = target: T2, human GIP receptor; assay: cell-based or functional assay; remark: listed apart in the source
human GLP-1 receptor [4] = target: T1, human GLP-1 receptor; assay: cell-based or functional assay

Binder: H-Y[Aib]EGT[Iva]ISDLSI[Aib]K([AEEA-AEEA-γGlu-C18 diacid])DRIHQ[Aib]EFIEWLLAQGPSSGAPPPS-NH2 (Synthetic peptide, 39 residues) [SEQ ID NO: 23]
- IC50 (human GLP-1 receptor [1]): 259 nM
- hGIPR EC50 (cAMP, human adipocytes) (human GIP receptor [2]): 0.2 nM
- hGIPR Emax (cAMP, human adipocytes) (human GIP receptor [2]): 91%
- EC50 hGIPR 0% HSA (cAMP, HEK-293) (human GIP receptor [3]): 0.00027 nM
- EC50 hGIPR 0.1% BSA (cAMP, HEK-293) (human GIP receptor [3]): 0.0177 nM
- EC50 hGLP-1R 0.1% BSA (cAMP, HEK-293) (human GLP-1 receptor [4]): > 10 nM

B1: SEQ ID NO: 22 (peptide)
peptide: Y[Aib]EGTFISDLSI[Aib]K([AEEA-AEEA-γGlu-C18 diacid])DR[Aib]HQ[Aib]EFIEWLLAQRPSSGAPPPS-NH2
modifications: N-terminus assumed
SMILES: CC[C@H](C)[C@H](NC(=O)[C@H](Cc1ccccc1)NC(=O)[C@H](CCC(=O)O)NC(=O)C(C)(C)NC(=O)[C@H](CCC(N)=O)NC(=O)[C@H](Cc1c[nH]cn1)NC(=O)C(C)(C)NC(=O)[C@H](CCCNC(=N)N)NC(=O)[C@H](CC(=O)O)NC(=O)[C@H](CCCCNC(=O)COCCOCCNC(=O)COCCOCCNC(=O)CC[C@H](NC(=O)CCCCCCCCCCCCCCCCC(=O)O)C(=O)O)NC(=O)C(C)(C)NC(=O)[C@@H](NC(=O)[C@H](CO)NC(=O)[C@H](CC(C)C)NC(=O)[C@H](CC(=O)O)NC(=O)[C@H](CO)NC(=O)[C@@H](NC(=O)[C@H](Cc1ccccc1)NC(=O)[C@@H](NC(=O)CNC(=O)[C@H](CCC(=O)O)NC(=O)C(C)(C)NC(=O)[C@@H](N)Cc1ccc(O)cc1)[C@@H](C)O)[C@@H](C)CC)[C@@H](C)CC)C(=O)N[C@@H](CCC(=O)O)C(=O)N[C@@H](Cc1c[nH]c2ccccc12)C(=O)N[C@@H](CC(C)C)C(=O)N[C@@H](CC(C)C)C(=O)N[C@@H](C)C(=O)N[C@@H](CCC(N)=O)C(=O)N[C@@H](CCCNC(=N)N)C(=O)N1CCC[C@H]1C(=O)N[C@@H](CO)C(=O)N[C@@H](CO)C(=O)NCC(=O)N[C@@H](C)C(=O)N1CCC[C@H]1C(=O)N1CCC[C@H]1C(=O)N1CCC[C@H]1C(=O)N[C@@H](CO)C(N)=O
notes: Synthetic peptide, 39 residues
- IC50 (human GLP-1 receptor [1]): 221 nM
- hGIPR EC50 (cAMP, human adipocytes) (human GIP receptor [2]): 0.6 nM
- hGIPR Emax (cAMP, human adipocytes) (human GIP receptor [2]): 98%
- EC50 hGIPR 0% HSA (cAMP, HEK-293) (human GIP receptor [3]): 0.00016 nM
- EC50 hGIPR 0.1% BSA (cAMP, HEK-293) (human GIP receptor [3]): 0.00666 nM
- EC50 hGLP-1R 0.1% BSA (cAMP, HEK-293) (human GLP-1 receptor [4]): > 10 nM

B2: SEQ ID NO: 37 (peptide)
peptide: Y[Aib]EGTFISDLSI[Aib]LDRIK([AEEA-AEEA-γGlu-C18 diacid])Q[Aib]EFIEWLLAQGPSSGAPPPS-NH2
modifications: N-terminus assumed
SMILES: CC[C@H](C)[C@H](NC(=O)[C@H](CCCNC(=N)N)NC(=O)[C@H](CC(=O)O)NC(=O)[C@H](CC(C)C)NC(=O)C(C)(C)NC(=O)[C@@H](NC(=O)[C@H](CO)NC(=O)[C@H](CC(C)C)NC(=O)[C@H](CC(=O)O)NC(=O)[C@H](CO)NC(=O)[C@@H](NC(=O)[C@H](Cc1ccccc1)NC(=O)[C@@H](NC(=O)CNC(=O)[C@H](CCC(=O)O)NC(=O)C(C)(C)NC(=O)[C@@H](N)Cc1ccc(O)cc1)[C@@H](C)O)[C@@H](C)CC)[C@@H](C)CC)C(=O)N[C@@H](CCCCNC(=O)COCCOCCNC(=O)COCCOCCNC(=O)CC[C@H](NC(=O)CCCCCCCCCCCCCCCCC(=O)O)C(=O)O)C(=O)N[C@@H](CCC(N)=O)C(=O)NC(C)(C)C(=O)N[C@@H](CCC(=O)O)C(=O)N[C@@H](Cc1ccccc1)C(=O)N[C@H](C(=O)N[C@@H](CCC(=O)O)C(=O)N[C@@H](Cc1c[nH]c2ccccc12)C(=O)N[C@@H](CC(C)C)C(=O)N[C@@H](CC(C)C)C(=O)N[C@@H](C)C(=O)N[C@@H](CCC(N)=O)C(=O)NCC(=O)N1CCC[C@H]1C(=O)N[C@@H](CO)C(=O)N[C@@H](CO)C(=O)NCC(=O)N[C@@H](C)C(=O)N1CCC[C@H]1C(=O)N1CCC[C@H]1C(=O)N1CCC[C@H]1C(=O)N[C@@H](CO)C(N)=O)[C@@H](C)CC
notes: as for B1
- IC50 (human GLP-1 receptor [1]): 41 nM
- hGIPR EC50 (cAMP, human adipocytes) (human GIP receptor [2]): 0.5 nM
- hGIPR Emax (cAMP, human adipocytes) (human GIP receptor [2]): 113%
- EC50 hGIPR 0% HSA (cAMP, HEK-293) (human GIP receptor [3]): 0.00015 nM
- EC50 hGIPR 0.1% BSA (cAMP, HEK-293) (human GIP receptor [3]): 0.0201 nM
- EC50 hGLP-1R 0.1% BSA (cAMP, HEK-293) (human GLP-1 receptor [4]): > 10 nM

Reference: patent US20240360194A1, “New Peptides as Potent and Selective GIP Receptor Agonists” (Sanofi, priority 2021, published 2024)
